Our source for the binding result and Kd values is patent US12742015 (dated 2026).

The target of one experiment is T1, FcγRIIa 167R (human, UniProt P12318).
T1 chain: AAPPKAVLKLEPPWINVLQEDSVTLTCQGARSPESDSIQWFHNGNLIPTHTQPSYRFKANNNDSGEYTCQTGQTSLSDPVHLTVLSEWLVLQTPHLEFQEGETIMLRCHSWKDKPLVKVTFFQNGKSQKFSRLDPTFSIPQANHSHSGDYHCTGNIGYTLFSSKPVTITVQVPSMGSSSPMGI
Description: SPR. (In general: Surface plasmon resonance follows binding to a sensor surface in real time, without labels.)

The next experiment concerns the target T2, FcγRIIb (human, UniProt P31994).
T2 chain: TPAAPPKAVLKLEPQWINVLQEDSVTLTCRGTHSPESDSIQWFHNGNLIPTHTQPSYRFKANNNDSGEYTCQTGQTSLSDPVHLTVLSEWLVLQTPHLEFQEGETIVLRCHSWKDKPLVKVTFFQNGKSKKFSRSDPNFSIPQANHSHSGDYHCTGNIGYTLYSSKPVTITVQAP
Description: SPR.

In the next experiment the target is FcRn (human, UniProt P55899). Description: SPR, pH 7.4.
FcRn, sequence (P55899 24-297, chain 1 of 2): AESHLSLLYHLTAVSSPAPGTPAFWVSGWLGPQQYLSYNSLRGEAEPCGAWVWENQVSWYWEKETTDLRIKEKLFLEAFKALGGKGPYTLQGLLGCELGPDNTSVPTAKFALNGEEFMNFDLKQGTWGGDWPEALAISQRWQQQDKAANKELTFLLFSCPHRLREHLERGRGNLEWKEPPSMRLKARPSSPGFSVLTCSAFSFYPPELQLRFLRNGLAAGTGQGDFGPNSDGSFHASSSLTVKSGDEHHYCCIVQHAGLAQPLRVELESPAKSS
FcRn, sequence (chain, as listed by the source, chain 2 of 2): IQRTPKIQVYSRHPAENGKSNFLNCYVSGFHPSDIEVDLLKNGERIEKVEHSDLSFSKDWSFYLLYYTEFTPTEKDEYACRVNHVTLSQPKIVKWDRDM
The target in experiment [1] is T3, OX40 on T cells (human, UniProt P43489).
T3 chain: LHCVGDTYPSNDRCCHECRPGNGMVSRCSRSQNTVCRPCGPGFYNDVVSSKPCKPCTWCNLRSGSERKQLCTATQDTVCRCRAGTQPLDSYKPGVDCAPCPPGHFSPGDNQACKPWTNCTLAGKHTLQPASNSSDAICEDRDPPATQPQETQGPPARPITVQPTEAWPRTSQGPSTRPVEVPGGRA
The experiment in a line: other, CD4+ T cells, apparent affinity.

Experiment [2] has as its target T3, OX40 on T cells. Description: other, CD8+ T cells, apparent affinity.

B1: MAB10 full (antibody)
chain 1: QVTLKESGPALVKPTQTLTLTCSFSGFSLSTSGMGVGWIRQPPGKALEWIAHIWWDDDKYYNTALKTRLTISKDTSKNQVVLTMTNMDPVDTATYYCARIDWDGFAYWGQGTLVTVSSASTKGPSVFPLAPSSKSTSGGTAALGCLVKDYFPEPVTVSWNSGALTSGVHTFPAVLQSSGLYSLSSVVTVPSSSLGTQTYICNVNHKPSNTKVDKKVEPKSCDKTHTCPPCPAPELLGGPSVFLFPPKPKDTLYITREPEVTCVVVDVSHEDPEVKFNWYVDGVEVHNAKTKPREEQYNSTYRVVSVLTVLHQDWLNGKEYKCKVSNKALPAPIEKTISKAKGQPREPQVYTLPPSRDELTKNQVSLTCLVKGFYPSDIAVEWESNGQPENNYKTTPPVLDSDGSFFLYSKLTVDKSRWQQGNVFSCSVMHEALHNHYTQKSLSLSPGK
chain 2: EIVLTQSPATLSLSPGERATLSCRASSSVSYMHWYQQKPGQAPRPWIYATSNRATGIPARFSGSGSGTDYTLTISSLEPEDFAVYYCQQFGAWPWTFGQGTKVEIKRTVAAPSVFIFPPSDEQLKSGTASVVCLLNNFYPREAKVQWKVDNALQSGNSQESVTEQDSKDSTYSLSSTLTLSKADYEKHKVYACEVTHQGLSSPVTKSFNRGEC
Take B1: the binding result with FcγRIIa 167R, with FcγRIIb and with FcRn was “no binding” throughout.

B2: MAB1 full (antibody)
chain 1: not shown
chain 2: EIVLTQSPATLSLSPGERATLSCRASSSVSYMHWYQQKPGQAPRPWIYATSNRATGIPARFSGSGSGTDYTLTISSLEPEDFAVYYCQQFGAWPWTFGQGTKVEIKRTVAAPSVFIFPPSDEQLKSGTASVVCLLNNFYPREAKVQWKVDNALQSGNSQESVTEQDSKDSTYSLSSTLTLSKADYEKHKVYACEVTHQGLSSPVTKSFNRGEC
Regarding B2, the binding result with FcRn was “no binding”.

B3: GBR 830 full (antibody)
chain 1: not shown
chain 2: EIVLTQSPATLSLSPGERATLSCRASSSVSYMHWYQQKPGQAPRPWIYATSNRATGIPARFSGSGSGTDYTLTISSLEPEDFAVYYCQQWSSNPWTFGQGTKVEIKRTVAAPSVFIFPPSDEQLKSGTASVVCLLNNFYPREAKVQWKVDNALQSGNSQESVTEQDSKDSTYSLSSTLTLSKADYEKHKVYACEVTHQGLSSPVTKSFNRGEC
As to B3, the binding result in the experiment with FcRn is given as “no binding”.

B4: GBR 830 (OX40 binding) (antibody, V domains shown)
VH: QVTLKESGPALVKPTQTLTLTCSFSGFSLSTSGMGVGWIRQPPGKALEWIAHIWWDDDKYYNTALKTRLTISKDTSKNQVVLTMTNMDPVDTATYYCARIDWDGFAYWGQGTLVTVSS
VL: EIVLTQSPATLSLSPGERATLSCRASSSVSYMHWYQQKPGQAPRPWIYATSNRATGIPARFSGSGSGTDYTLTISSLEPEDFAVYYCQQWSSNPWTFGQGTKVEIK
With B4, the Kd in the experiment with OX40 on T cells [1] turned out to be 1.25 nM; with OX40 on T cells [2], 3.46 nM.
